# Results published in US20250382588A1, “CHIMERIC AAV AND USES THEREOF” (priority 2023, published 2025).
# B1: AAV8R: AAV8 capsid with N385D, insertion of SEQ ID NO: 31 at position 588 and TS to IN mutation; SEQ ID NO: 1 (protein)
# chain: MAADGYLPDWLEDNLSEGIREWWALKPGAPKPKANQQKQDDGRGLVLPGYKYLGPFNGLDKGEPVNAADAAALEHDKAYDQQLQAGDNPYLRYNHADAEFQERLQEDTSFGGNLGRAVFQAKKRVLEPLGLVEEGAKTAPGKKRPVEPSPQRSPDSSTGIGKKGQQPARKRLNFGQTGDSESVPDPQPLGEPPAAPSGVGPNTMAAGGGAPMADNNEGADGVGSSSGNWHCDSTWLGDRVITTSTRTWALPTYNNHLYKQISNGTSGGATNDNTYFGYSTPWGYFDFNRFHCHFSPRDWQRLINNNWGFRPKRLSFKLFNIQVKEVTQNEGTKTIANNLTSTIQVFTDSEYQLPYVLGSAHQGCLPPFPADVFMIPQYGYLTLNDGSQAVGRSSFYCLEYFPSQMLRTGNNFQFTYTFEDVPFHSSYAHSQSLDRLMNPLIDQYLYYLSRTQTTGGTANTQTLGFSQGGPNTMANQAKNWLPGPCYRQQRVSTTTGQNNNSNFAWTAGTKYHLNGRNSLANPGIAMATHKDDEERFFPSNGILIFGKQNAARDNADYSDVMLTSEEEIKTTNPVATEEYGIVADNLQRGNLADQDYTKTARQAATADVNSQGALPGMVWQNRDVYLQGPIWAKIPHTDGNFHPSPLMGGFGLKHPPPQILIKNTPVPADPPTTFNQSKLNSFITQYSTGQVSVEIEWELQKENSKRWNPEIQYTSNYYKSINVDFAVNTEGVYSEPRPIGTRYLTRNL
# B2: G88P7: 896-bp derivative of the G88P2 promoter, SEQ ID NO: 61 (nucleic acid, listed as Homo sapiens)
# DNA: ATGCCAAGCGTGGAAAGGCTGTCTTTTCCCTGGATGATGTATAACTAAGCAGGAGAGAGCTTCGAGTGGGTTCACCACATCAGCCACCACTCCTGCTTCTGAGCACAGGGTGCTCTCCTCTTGAGCTCAGCTTCTGCTTTTGCAGCCAAGCATTCTTGCTGCTGCTGCCTGCCTGCCCACCCGCCTGGGCTTGCAGCCCGCCACTTTACTTTCTCCAGCCCTGATACCAGCTGAGAAGTCTCCCTGCAGCTGCTAGTTCCTGCCCAGGACCATGTGTGTGGATGCTGCTTGGGAGAAGCGGGCACTTGCTCCTGGCACTGATCCCAGCTGAGTTTCTCCTGTTGATTTCTGGACCACTGATGCTGTTGCTGAGGAGGTATTTCCCGGCATCCCTCCCCCTGAGACACCGGCTAAGGACCAGCCTAAACGCAAGGTAACCTTCACCTCTTTCCCATGGGATTTTCCCCAGCTGGGATATCTCTGCTTTCTCCTGGAACTAGGTCCTCCAGCTGGCAACATATCTCTCTCTCTCTCTCTCTCTCTCTCTCTCTCTCTCTCTCTGTGTGTGTGTGTGTGTGTTGGGGGAGAAGAGGAGACTGTTTTAGGTATTGCTCTGTCCTAGGGCTTCCCCGATACCTGCTGAATCCAATGCAAAGTGGCCTTTCCCCTGGCTCTGGAGACATTTCCGAGGCAGGCACCTGTCATCTGCCACCCCCGTCCTCCTCCTCGAGCTCCCTTTCTCCCCCTCCCCCAGCCCATTATTCTGCTTCAGCCTTTTGTGTCAGTGGCAGAGGGCTGAAGGGATGTCTTTGCCCTTCTGGCAGGCAGGACAGTGTCAGGATGGACCGCGCTGCCAGAAGCCGACGCTAGCGAGGGAGGTGTGAAGAGTTGGCCAG
# Tests used:
# Assay type in all cases: in vivo, mice
# [1] = test system: striatal D1 MSNs (striatonigral projection neurons); assay: Retrograde labeling of striatonigral projection neurons after AAV injection into the SNr
# Protocol: To improve efficiency, multiple rounds of mutations of AAV capsids were performed on a series of different serotypes. Mutations were introduced at three sites in the AAV8 capsid protein to make AAV8R, including N385D, insertion of […] (SEQ ID NO: 31) at position 588, and TS711-712IN. Two additional mutations of V183E and N411S were incorporated into the AAV8R12 capsid protein (FIG. 1A). The labeling pattern of the AAV8R12 capsid and G88 promoter combination was determined.
# First, the polypeptide fragment RGNLADODYTKTARQAATAD (SEQ ID NO.: 31) was inserted at the N587-R588 position; two other point mutations of the AAV2 Cap protein were made to develop rAAV2-retro. Similar mutations were then placed at equivalent positions for four other AAV serotypes (FIGS. 1A-IC and 25, TABLE 1), AAV1/5/6/8 (FIG. 1A). […] When administered into the SNr, 4.86±0.22 times EYFP positive MSNs in mice infected by AAV8R-hSyn-EYFP were observed as compared to those infected by rAAV2-retro-hSyn-EYFP (FIG. 2A-2C).
# Baseline infectivity of rAAV2-retro was approximately 0.2±0.03×10^4 cells per striatal hemisphere (using a hSyn promoter) (TABLE 2). […] Compared to the current standard retrograde AAV, rAAV2-retro, AAV8R12 labeled 7.72±0.78-times more MSNs after nigral delivery (FIG. 2B-2C, TABLE 1). […] The AAV8R12 was generated using the AAV8R plasmid as a template.
# Mice were anesthetized with sodium pentobarbital (Nembutal; 80 mg/kg, i.p.), and then placed into a stereotaxic device (KOPF). Eye cream was applied on both corneas to avoid dehydration. The skull above the targeted areas was thinned with a dental drill and carefully removed. Injections were conducted with a 10 μL syringe connected to a 33-Gauge needle (Neuros; Hamilton), using a microsyringe pump (Legato 130, KD Scientific). A total volume of 200 nL virus was injected into the SNr at a speed of 20 nL/min. The coordinates for the SNr were 3.4 mm posterior, 1.3 mm lateral, 4.8 mm ventral to the bregma.
# HEK293T cells (ATCC) were co-transfected by calcium phosphate with an AAV vector plasmid, an AAV Rep-Cap plasmid (rAAV2-retro, AAV1R, AAV5R, AAV6R, AAV8R, and AAV8R1-14), and the pAdDeltaF6 helper plasmid (Addgene, 112867) harboring the adenoviral genes required for the AAV life cycle. HEK293T cells grown in 15 cm cell culture dishes were co-transfected with the mixture of three plasmids (1:1:1) at 80% confluency. 48-72 hours post-transfection, cells were collected and resuspended in a buffer containing 150 mM NaCl and 100 mM Tris-HCl (pH 8.0). Cells were lysed by repeated freeze-thaw cycles in liquid nitrogen and a 37° C. water bath. AAV particles were purified and concentrated using Millipore Amicon 100K columns (Merck Millipore, UFC910008). Encapsidated viral DNA was quantitated by qPCR (Thermo Fisher) with primers recognizing the viral WPRE and/or ITR sequences following denaturation of the AAV particles using Proteinase K. Titers were calculated as genome copies per milliliter.
# Images were acquired using a confocal microscope (Carl Zeiss, LSM880) and an Axiolmager.Z1 microscope with apotome (Carl Zeiss). Brain structures were identified microscopically and in digital photos using a mouse brain atlas. To analyze the number of EYFP+ cells in the striatum, slices from rostral to caudal striatum were used. Every sixth section was analyzed, and numbers of EYFP+ cells were multiplied by six to acquire the approximate total number and mean number of cells per animal. Images were processed using ImageJ (NIH, USA), and final quantifications were independently performed manually by two blinded experimenters.
# [2] = test system: MSNs in nucleus accumbens; assay: Retrograde labeling of accumbal MSNs after delivery into ventral pallidum or lateral hypothalamus
# [3] = test system: MSNs in the striatum (STR); assay: Promoter activity driving EYFP reporter expression after AAV injection into the SNr: striatum
# Excerpt: (§1) Brain profiles of two epigenetic marks for enhancers and promoters, monomethylation of histone H3 lysine 4 (H3K4me1) and acetylation of histone H3 lysine 27 (H3K27ac) were checked and approximately 2 kilobase-long sequences around the transcriptional start site (TSS) that have high levels of H3K4me1 and/or H3K27ac were identified in mouse brain. Homologous sequences at equivalent positions of the human genome were then cloned onto an AAV backbone, and the activity of the homologous sequences in directing reporter expression was tested in mice after injections of AAVs into the SNr (FIG. 3A-C, TABLE 3).
# G88P2 (2259 bp) was cloned with the following primers: 5′-[…] (SEQ ID NO.: 36) and 3-[…] (SEQ ID NO.: 37). To increase the payload of AAV genome, the G88P2 promoter was shorted using restriction enzymes, and two derivatives, G88P3 and G88P7, were made which were 1395-bp and 896-bp long, respectively (FIG. 3A-3C). Comparative efficiency in labeling MSNs for the two shortened promoters was observed. For mice that received viral injections into the SNr, viruses expressing EYFP driven by G88P3 and G88P7 promoters labeled 3.7±0.66×104 and 3.95±0.73×104 MSNs per mouse, respectively, compared to 1.61±0.16×104 labeled MSNs by hSyn promoter (FIG. 4B).
# (§2) Region-selective promoter identification was based on the Allen Brain Atlas in situ hybridization (ISH) data (mouse.brain-map.org/). Genes highly expressed in the striatum but not in other parts of the basal ganglia were first selected as candidates. H3K4me1 and H3K27ac are known epigenetic marks for active promoters and enhancers. Thus, we identified regions with high levels of these two chromatin modification marks in mouse brain as candidate regions based on the ENCODE annotation data on the UCSC Genome Browser (genome.ucsc.edu/). To further extend the promoters' potential application in primates, the sequences of interest were PCR-amplified from human genomic DNA. Based on the above strategies, GPR88 was selected as a candidate gene. The nucleotide sequence upstream of the start codon with high H3K4me1 and H3K27ac levels was selected as the candidate promoter sequence. G88P2 (2259 bp) was cloned with the following primers: 5′-[…]-3′ (SEQ ID NO: 36), 5′-[…]-3′ (SEQ ID NO: 58). G88P3 (1395 bp) and G88P7 (896 bp) were further shortened by subcloning.
# Promoters were subcloned into a pAAV-hSyn-EYFP vector derived from pAAV-hSyn-EGFP (Addgene, 50465) to replace the hSyn promoter by using appropriate restriction enzyme combinations. To generate pAAV-G88P7-DIO-tdTomato, a DIO-tdTomato cassette was subcloned into pAAV-G88P7-EYFP to replace EYFP by restriction enzyme digestion. To generate pAAV-G88P3-HA-hM3Dq, promoter G88P3 was subcloned into pAAV-hSyn-HA-hM3Dq-IRES-mCitrine (Addgene, 50463) via the EcoRI/BamHI restriction sites to replace the hSyn promoter and IRES-mCitrine was removed afterwards by restriction enzyme digestion. To generate pAAV-G88P3-HA-hM3Dq-2A-EYFP, a 2A-EYFP fragment was subcloned into pAAV-G88P3-HA-hM3Dq after hM3Dq. […]
# Images were acquired using a confocal microscope (Carl Zeiss, LSM880) and an Axiolmager.Z1 microscope with apotome (Carl Zeiss). […] Every sixth section was analyzed, and numbers of EYFP+ cells were multiplied by six to acquire the approximate total number and mean number of cells per animal. […]
# substantia nigra (SN) = assay: Promoter activity driving EYFP reporter expression after AAV injection into the SNr: substantia nigra; conditions: numbers of YFP-expressing neurons per animal
# Excerpt: as §1
# as §2, with “subcloning. […]” for “subcloning.”
# Images were acquired using a confocal microscope (Carl Zeiss, LSM880) and an Axiolmager.Z1 microscope with apotome (Carl Zeiss). […] Every sixth section was analyzed, and numbers of EYFP+ cells were multiplied by six to acquire the approximate total number and mean number of cells per animal. Images were processed using ImageJ (NIH, USA), and final quantifications were independently performed manually by two blinded experimenters.
Molecule,"Mean ([1]; Table 2, AAVs with capsid and promoter, labeled cells per striatal hemisphere after nigral delivery)","retrograde labeling/infectivity of striatal projection neurons (D1 MSNs), in words ([1]; injection into the SNr)","labeled striatonigral projection neurons (FIG. 2C) ([1]; mean±SEM, n=3 mice, viruses injected into the SNr)","times more EYFP positive/labeled MSNs compared to rAAV2-retro ([1]; nigral delivery, hSyn-EYFP)",labeling of MSNs in nucleus accumbens [2],"labeled MSNs, reporter expression driven by promoter (FIG. 4B) ([3]; mean±SEM, n=3 mice, AAV8R12 capsid)",Activity Level STR ([3]; numbers of YFP-expressing neurons per animal),Activity Level SN (substantia nigra (SN))
B1,10092,acquired improved retrograde infectivity,10092±463.9,4.86±0.22 times,robust labeling,–,–,–
B2,–,–,–,–,–,39460±7281,++++ (>25 k),+ (<5 k)
